Assay [1] has as its target recombinant human periostin (human) (UniProt Q15063). The experiment in a line: ELISA, human periostin coated, biotinylated collagen type I titrated, Avidin-HRP detection.
Assay [2] has the same target. The experiment in a line: ELISA, human periostin coated, biotinylated tenascin C titrated, Avidin-HRP detection.

Sequence of recombinant human periostin (human) (Q15063 22-836 limits assumed): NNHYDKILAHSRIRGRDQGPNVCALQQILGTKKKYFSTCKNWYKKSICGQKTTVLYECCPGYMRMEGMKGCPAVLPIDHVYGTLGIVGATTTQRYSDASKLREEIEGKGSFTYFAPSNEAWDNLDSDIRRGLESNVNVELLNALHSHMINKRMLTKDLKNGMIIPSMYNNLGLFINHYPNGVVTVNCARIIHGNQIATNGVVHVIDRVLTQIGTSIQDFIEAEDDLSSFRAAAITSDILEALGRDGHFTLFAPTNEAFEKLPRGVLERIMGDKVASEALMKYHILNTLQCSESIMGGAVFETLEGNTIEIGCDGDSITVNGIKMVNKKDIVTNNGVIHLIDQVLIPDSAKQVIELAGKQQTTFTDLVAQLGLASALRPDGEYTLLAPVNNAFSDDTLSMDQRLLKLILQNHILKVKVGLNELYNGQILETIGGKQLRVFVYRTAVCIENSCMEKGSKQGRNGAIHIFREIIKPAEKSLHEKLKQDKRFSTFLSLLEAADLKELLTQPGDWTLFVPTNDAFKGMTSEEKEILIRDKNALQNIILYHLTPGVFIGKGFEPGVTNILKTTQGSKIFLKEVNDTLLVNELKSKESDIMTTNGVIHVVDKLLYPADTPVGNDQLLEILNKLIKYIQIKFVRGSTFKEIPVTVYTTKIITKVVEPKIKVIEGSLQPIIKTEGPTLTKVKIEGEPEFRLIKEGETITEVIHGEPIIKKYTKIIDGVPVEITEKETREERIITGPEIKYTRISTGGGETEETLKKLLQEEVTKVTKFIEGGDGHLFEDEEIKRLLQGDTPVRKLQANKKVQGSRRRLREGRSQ

The term EC80 denotes the concentration at which the effect reaches the 80% level. In the case of “human collagen type I (from UniProt P02452 162-1218; P08123 80-1119)”, the EC80 in assay [1] is 100 nM.

Take “recombinant human tenascin C (from UniProt P24821 23-625)”: the EC80 in assay [2] stood at 0.9 nM.

For the origin of these results see patent US20220010003A1.
